Assay results published in publication PMC9108660.

Assays:
[1] = target: dCas9 (catalytically deactivated Cas9) (UniProt Q99ZW2); experiment: SPR; conditions: SPR: 2 mM MgCl2, 37 °C, 30 min, 2 µL DNA (up to 1000 ng/µL), dRNP on graphdiyne chip, rinse 2 mM MgCl2, bead assay: 2 mM MgCl2, 37 °C, 1 h, pH not stated
[2] = target: dCas9 (catalytically deactivated Cas9) (UniProt Q99ZW2); experiment: magnetic bead pull-down, qPCR; conditions: 2 mM Mg2+; SPR: 2 mM MgCl2, 37 °C, 30 min, 2 µL DNA (up to 1000 ng/µL), dRNP on graphdiyne chip, rinse 2 mM MgCl2; bead assay: 2 mM MgCl2, 37 °C, 1 h; pH not stated

UniProt Q99ZW2, sequence (Q99ZW2 whole entry): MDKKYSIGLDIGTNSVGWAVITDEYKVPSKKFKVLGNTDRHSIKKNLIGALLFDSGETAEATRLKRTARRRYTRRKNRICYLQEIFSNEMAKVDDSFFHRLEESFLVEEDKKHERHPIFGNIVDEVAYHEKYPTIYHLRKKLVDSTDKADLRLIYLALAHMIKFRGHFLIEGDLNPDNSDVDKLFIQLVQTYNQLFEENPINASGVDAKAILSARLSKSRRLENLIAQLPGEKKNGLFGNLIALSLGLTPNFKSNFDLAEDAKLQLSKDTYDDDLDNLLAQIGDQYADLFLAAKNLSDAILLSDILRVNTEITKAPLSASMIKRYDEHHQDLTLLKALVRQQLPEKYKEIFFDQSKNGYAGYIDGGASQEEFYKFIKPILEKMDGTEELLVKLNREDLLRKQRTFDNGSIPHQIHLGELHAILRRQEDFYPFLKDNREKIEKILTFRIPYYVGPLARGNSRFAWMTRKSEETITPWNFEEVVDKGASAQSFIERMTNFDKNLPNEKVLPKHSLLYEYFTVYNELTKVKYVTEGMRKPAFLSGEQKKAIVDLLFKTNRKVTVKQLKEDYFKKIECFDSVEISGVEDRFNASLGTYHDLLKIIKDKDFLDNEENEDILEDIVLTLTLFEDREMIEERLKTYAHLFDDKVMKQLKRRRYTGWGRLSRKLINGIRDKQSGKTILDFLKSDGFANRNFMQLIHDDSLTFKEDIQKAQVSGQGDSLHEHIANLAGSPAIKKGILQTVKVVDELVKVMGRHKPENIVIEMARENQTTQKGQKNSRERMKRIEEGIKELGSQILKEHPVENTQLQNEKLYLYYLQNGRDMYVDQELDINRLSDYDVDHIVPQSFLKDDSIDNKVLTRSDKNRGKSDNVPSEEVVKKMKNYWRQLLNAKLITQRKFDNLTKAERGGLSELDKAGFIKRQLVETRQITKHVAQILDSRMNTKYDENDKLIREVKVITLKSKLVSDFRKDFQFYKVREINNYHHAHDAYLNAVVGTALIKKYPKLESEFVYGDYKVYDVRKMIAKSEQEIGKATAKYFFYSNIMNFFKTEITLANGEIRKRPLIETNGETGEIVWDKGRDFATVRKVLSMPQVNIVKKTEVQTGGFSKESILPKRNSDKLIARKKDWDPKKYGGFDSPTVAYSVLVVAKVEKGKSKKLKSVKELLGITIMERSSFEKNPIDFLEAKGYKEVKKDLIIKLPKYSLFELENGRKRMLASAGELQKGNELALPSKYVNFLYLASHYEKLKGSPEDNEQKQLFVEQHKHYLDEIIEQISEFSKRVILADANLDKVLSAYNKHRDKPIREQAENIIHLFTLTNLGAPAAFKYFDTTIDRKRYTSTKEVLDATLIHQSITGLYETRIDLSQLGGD

Sequence	Kd [1]	binding signal [2] [% captured]	Kd ([1]; 2 mM Mg2+, ka 0.11e5 M-1s-1, kd 6.5e-3 s-1) [µM]
GGGUGCCUGCAGCUCCACACUAGGUUUUAGAGCUAGAAAUAGCAAGUUAAAAUAAGGCUAGU [sgRNA-Mut3 + pUC19-Mut3-0.8k amplicon]	7.61 10^-8 M	99.8	
GGGUGCCUGCAGGUCGCACCUAGGUUUUAGAGCUAGAAAUAGCAAGUUAAAAUAAGGCUAGU [sgRNA-Mut1 + pUC19-Mut1-0.3k amplicon]		89.2	
GGGUGCCUGCAGCUCCACACUAGGUUUUAGAGCUAGAAAUAGCAAGUUAAAAUAAGGCUAGU [sgRNA-Mut3 + pUC19-Mut3-0.3k amplicon]		99.8	
GGGGUUCGCCUUCCGCCGCGUGGGUUUUAGAGCUAGAAAUAGCAAGUUAAAAUAAGGCUAGU [sgRNA-GFP-Pos3 + pCDH-GFP-5k amplicon]			0.591
GGGUGUAGUAGCCGCCGUCGCGCGUUUUAGAGCUAGAAAUAGCAAGUUAAAAUAAGGCUAGU [sgRNA-GFP-Pos2 + pCDH-GFP-5k amplicon]	1.38 10^-8 M	99.7	
GGGUGUAGUAGCCGCCGUCGCGCGUUUUAGAGCUAGAAAUAGCAAGUUAAAAUAAGGCUAGU [sgRNA-GFP-Pos2 + pCDH-GFP-2k amplicon]		99.4	
GGGUGCCUGCAGGUCGCACCUAGGUUUUAGAGCUAGAAAUAGCAAGUUAAAAUAAGGCUAGU [sgRNA-Mut1 + pUC19-Mut1-0.8k amplicon]		69.8	
